In the DeepSol protein solubility set:

Assay: soluble on expression in E. coli; label from the status in PepcDB or PDB records

Sequence	soluble on expression in E. coli
MAHHHHHHMWCTRLCREEGLFRFLRNLFEVLDFVTERCRRCLDTSSCLLLLCASPLSSCSIGGPHTRGCFNEILHRLSRGAQQPAHRRQSATSSHPRTPWRLHRFNDERVCVWGGNPPPQSTTGRHRSLCTPFSLSHTPSTAWAPLLPADKHHMQASPVLAGAAVRRTATASVGSEPRTNLPFLINVVKKAQKSANTVVASTPALSSMSSTKEPPIQAAAFKPYPLLSPGEVKQAAGSSLLYKDDVCVLVNDAFPKSMVHCLVMPLDLRLQSLNALTKKDAPLLRHMLHVGDEYVRYLKTAVPHTYTARRFIAGFHALPSLPMLHMHVLSTDLDSPCLKNKKHYNSFATFFFLTGDRVLDDLERHGRVTLNQDVTRLRQMEEQDMKCLWCGTALPSVPAMKSHIQCCPQNKAVEKSS	not soluble
MSGDENPASKPTPVQDVQGDGRWMSLHHRFVADSKDKEPEVVFIGDSLVQLMHQCEIWRELFSPLHALNFGIGGDSTQHVLWRLENGELEHIRPKIVVVWVGTNNHGHTAEQVTGGIKAIVQLVNERQPQARVVVLGLLPRGQHPNPLREKNRRVNELVRAALAGHPRAHFLDADPGFVHSDGTISHHDMYDYLHLSRLGYTPVCRALHSLLLRLLTQDQGQGGAPLPEPSP	soluble
MGSDKIHHHHHHDKAYTDAESYTKGLHKIYSVWALSGQDGSSSSDISGLDAGNTALLRCWWTLQEQPTDEMKNAWNDAWCTEVNYMTWTTNKVEPIEGVYQRCMYIVALVNEFLKNIPNAPESIDKESYIAQARFNRAFAYYVLMDMFALPPFITEKNYSIEPAPLSREDLFNWIEAELNEIKPNLPSPRSEYGVADQAVASALLARMYLNAEIYTGKARYTECINACNEVIKAGYQLADNYADLFKADNGENPDTKKEIIYPIIFDGDKTQSWGMAAIIIGARGAEDKDVLLAHSGVDQGWAGFRATSNLVHLFDFQNDEEPKASEIQDKRGIFYDKGRSIDITSSVSGTFETEGWSVFKFSNLNSNGQPGKNTLWVDTDFPMFRLGDIYLMYAEAVARGGEGSKASAVEYINALRKRAYGDDKHNISENWLEENNFRNLLDERGRELYWEGIRRTDLVRFDLLTSGSYTWDFKGGINTGVGVNKRYNVYPIPVTDLTVNGNLQQNEGY	not soluble
MKIVAVTACPTGIAHTYMAADALMKAAPKHNVQIKVETQGAMGIENQLTPHDIAQADRVLIVSDIEIEQPGRFEGTRKIQIPIEEVLLNVDKVFLVHCRD	soluble
MSLKVGFDNQKYLKMQSEHIRERISKFDNKLYLEFGGKLFDDYHASRVLPGFEPDSKLKMLLELKDQAEIVIVISAIDIEKSKVRGDLGITYDSDVLRLIDAFQSKGLYVGSVTITQYSGQSSADLFKSKLEALGVKVYLHYIIPGYPNNISLILSEDGYGKNEFIQTTRPLVVITAPGPGSGKMATCLSQLYHEHKRGVRAGYAKFETFPIWNLSLKHPVNVAYEAATADLNDVNMIDPCHLEAYGVTAVNYNRDVEIFPVLKAIFLRIDEHCPYKSPTDMGVNMVGNCIIDDQACRDASKQEILRRYYQTLCNVINGTSDGDEVYKLELLLNQVSVSAEDRPVIKAANDLADLNKSPAVAMQLADESIITGKTSELLGASAAVLLNALKALAGIPHETHVISPLAIGPIQQLKTQYLGSSNPRLHTDEVLIALSISAKEDENARKAMEQLPHLKGCEVHTSVILSEVDRKVFHKLGVHLTSEPTYENKKLFHEGHHHHHH	soluble
MARQTMNPSIRYLIGVDGGGTGTRIRLHASDGTPLAMAEGGASALSQGIAKSWQAVLSTLEAAFQQAGLPAAPASACAIGLGLSGVHNRQWAGEFESQAPGFARLSLATDGYTTLLGAHGGQPGIIVALGTGSIGEALYPDGSHREAGGWGYPSGDEASGAWLGQRAAQLTQMALDGRHSHSPLTRAVLDFVGGDWQAMMAWNGRATPAQFARLAPLVLSAARVDPEADALLRQAGEDAWAIARALDPQDELPVALCGGLGQALRDWLPPGFRQRLVAPQGDSAQGALLLLQRPSTRLEHHHHHH	soluble
MSLRIIHICLWLLTGIFAEVSLSAQNPFIYHKGKTYKDVAAYRMEEIIDLNTHTPSTPILYEQQVPEHQSTLSYKVALPLYVRGIFFSRDSRPGDYQWPNNTNRLLPWMFNHLEDLTRSDYASIPSNALPSASGDALLLELADGEYLFAKAIAGSNSLSWFQVNQDGTLTLYVSTLGEDALTGRLPLLIFRKSSSVYHVFSDAYDSLIADKAVSALRKRADKQYFNAFDYLGWCTWEHYHYDIDETKILNDIDAIEASGIPVRYVLIDDGHIANKNRQLTSLVPDKKRFPNGWSRIMKRKQADKIRWIGLWYSLSGYWMGISAENDFPPEIRQVLHSYNGSLLPGTSTEKIETWYEYYVRTMKEYGFDFLKIDNQSFTLPLYMGGTQVIRQAKDCNLALEHQTHRMQMGLMNCMAQNVLNIDHTLYSSVTRASIDYKKYDENMAKSHLFQSYTNTLILGQTVWPDHDMFHSCDTVCGSLMARSKAISGGPVYLSDSPSEFIADNIRPLIDETGKIFRPAAPAIPTPESILTNPLQSGKAYREGHHHHHH	soluble
PRTVKELTVSAGDNLIITLPDNEVELKAFVAPAPPVETTYNYEWNLISHPTDYQGEIKQGHKQTLNLSQLSVGLYVFKVTVSSENAFGEGFVNVTVKPAR	soluble
MPNRPDLCLGVMSIELRHLRAAVAIAEAGSFTAAANALHITQPALTRTVQQLETSLGVRLFDRTSRALALTEDGAGFVEKVRVILGDLDSAVALYTNRSLVLGFSWLLPDPWAQQVIDDVEKNSRATVVPRRYDDPVAALNNATVDAAVVRRDVPGDEFVQHPLFEEQRIAAVSTASPLATRESIDWAEFGTLPLVINTLSGTTSEDLWPNHDGPVVTCSNFDDWLELIAADRGVGTVPEVARRRVTHRNVQFIPLVGAPPAVVRFVYRRNRVTPLLRVLRDAAIRHSPPPGSVTVGQHD	not soluble
MGSDKIHHHHHHMPEEKQKKSVLEKALKRIEENFGKGSIMILGDETQVQPVEVIPTGSLAIDIATGVGGYPRGRIVEIFGQESSGKTTLALHAIAEAQKMGGVAAFIDAEHALDPVYAKNLGVDLKSLLISQPDHGEQALEIVDELVRSGVVDLIVVDSVAALVPRAEIEGAMGDMQVGLQARLMSQALRKIAGSVNKSKAVVIFTNQIRMKIGVMFGSPETTTGGLALKFYATMRMEVRRGEPIKEGKDVIGNVISVKIVKNKVAPPFKTAQTYIIYGKGIDREYELFNIAVNEGIVDRKGSWYYYTTLKGEEVSLGQGSSNAVQFLKDNPEIAGEIERRIREKYGLLSVEKEEQRKEKKSSGEEAS	not soluble
MPMVLVVLDHDGNRLKKGSLEALTRARDLAQALGGKVAGVLLAEEKAPVEEARKYVEVLYTATLGPYTAEKWAAGVLKAAEASGAKAVVAPSSRQSRAYLGRVAYALRAGLLEDTLESRVEGGEVHATRYAYLNRVTQRVKAALPVVLTVKPNTTPLAEPLPGEAEAVALSVPEVPTVEVLERLQEEKKGVSLTEADVVVTGGRGMGSPEAFKLVEELAALLGGAVGATRAVVDAGWRPYAEQVGQTGKTVQPSLYIALGVSGAVQHLAGMNKSKYIVAVNKDPEAPIFKHADYGIVGDVHQVLPALIEAVKKLKD	soluble
MTIRVAINGFGRIGRNFLRCWFGRQNTDLEVVAINNTSDARTAAHLLEYDSVLGRFNADISYDENSITVNGKTMKIVCDRNPLNLPWKEWDIDLVIESTGVFVTAEGASKHIQAGAKKVLITAPGKAEGVGTYVIGVNDSEYRHEDFAVISNASCTTNCLAPVAKVLHDNFGIIKGTMTTTHSYTLDQRILDASHRDLRRARAAAVNIVPTTTGAAKAVALVIPELKGKLNGIALRVPTPNVSVVDLVVQVEKPTITEQVNEVLQKASQTTMKGIIKYSDLPLVSSDFRGTDESSIVDSSLTLVMDGDLVKVIAWYDNEWGYSQRVVDLAELAARKSGRLGLVQTLLISSQDSLPLTGGFFVAKREHPRSQDSINPSGPD	soluble
MTVSDRELEECIRALLDARADSASICPSDVARAVAPDDWRPLMEPVREAAGRLADAGEVEVTQKGAVVDPRSARGPIRIRWTRTD	soluble
MPGRFELKPTLAKIWHAPDNFRIMEPLPPMHRRGIIIAAIVLVIGFLLPASETSDSPVVTREAQLDLQSQSQPPTEAQLQAQLVAPQNDPDQVAPVAPEPIQEGQPEEQNQPQTQPFQQDSGIGQQWRSYRVESGKTLAQLFRDHGLPPTDVYAMAQVEGAGKPLSNLKNGQMIKIRQNASGVVTGLTIDGDNGQQVLFTRQPDGSFIRAQ	not soluble
MAHHHHHHMSDLRRVESLNADTFRRLNATSVVKSFWHTQLRAATAASRGAKDDSLATANEETPVATRKLRSAASSAEKSAGGLTDSTVYSSSSSSSNSRLSVSATLPGFPSPTETRRRLRAAALSAERHRAEESDEEKPDPVARTLFQNFLLQEYDALDSRPVLTVVLDLDETLVSNRDSGATGAILRPYCLHMLNALRHMQGLEVVLWTASTKETAAPVIRQLSQSGPVFDDVICRNSSWFTEPLHTKDLRLLGRDMSRVIIFDNSTACCKLNPRNAVIVDDFRGVRNTSDAALVNVYYIIERSFNGCCAGVSVLETLVKLAVEKQLCMPEVLHLPESWRHIPLREIAPLKVPPHGIFFRAHSTPLNDSIMQHWTV	soluble
MPITNERKETIRVAKKLNKFIALPSMLNWKVHESDVLRRGRVLCMIRSKNFFFPDDISSLKMRMATVTKHGYLVLYESVDEGLVIDLRSATHILTECDKYKSERIKYSRSHVKVRLPRGNVHMFLRDDDISKWTAALLEAHVSFRPTAAARVVAKPRQQPSKNVETMTAIEPVEVMDSPTSPVTSSNSGLITVLERGVSSEDTLIPSVRRGVIPVNTLRYQIEKHLEMCTPASEQLSKSSDPNISSMYVFHQGIQVKQEPIDDDQEEEQQVQKQLVFKIEGSEDEEAVKKEWWLRSLRC	not soluble
MGSDKIHHHHHHMFEIKVSQEIKNACPVFAGAAVYAAVKNTAYCDGLWKEINTFTEDLTTTTQMADIKLQPVIAATREAYKRCGKDPGRYRPSAEALRRRLMRGIPLYQIDTLVDLINLVSLRTGHSIGGFDADKIQGNHLELGIGKAEEPFEGIGRGILNIEGLPVYRDSFGGIGTPTSDHERTKMDIGTTHILAIVNGYNGKEGLKEAAEMIQSLLKDYAGSDGGELIYFE	not soluble
MSNYAKEERLTGGNVSSVYRSENTVRRELKPGSEKTHKLLQHLENKGFHYAPKFLGVDEKDREILSFIEGEAGNYPLKEYMRSNDVLKEIAKMLRLYHDAVSDFPLLNDWKPMDHTPNNIEVLCHNDFAIYNIIFNNEKPVGIIDFDVAAPGPRLWDIAYTLYTCVPLSRVYYTESGEAVHYDSPQHADRIKERVKLFVQSYGKNMDEDYLGMVLLRLEGLCTYMKRKAQEGDLNFQRMIDEGHLEHYEKDIKFIRDHRAEWS	not soluble
MGSDKIHHHHHHVLLEEFENTSAVIEPTDMAIRGGGEVCETMIFSFNGEIVDRVRQLPESREGGYLESINGRHPWYILERDGVRVAVMLAVIGAPMAVGHLEELKACGFENFIVLGSCGVLDKSLVADKIILPSSALRDEGTSYHYAPASDEISYDPALLLTMEKALDQAGIEHVRAKTWTTDAFYRETSAKVKRRLAAGAMVVDMEASAIMAWANFRQAKVYQFFYTADYVDYHKNEWDARREERTADSMTFFEVAMAIARKLESTSC	not soluble
MPSTDFADIPAAKKMKIDTCVLRFAKLTENALEPVRGSAKAAGVDLRSAYDVVVPARGKAIVKTDLQVQVPEGSYGRVAPRSGLAVKNFIDVGAGVVDEDYRGNLGVVLFNHSDVDFEVKHGDRIAQFICERIFYPQLVMVDKLEDTERGEAGFGSTGVK	soluble
